The target of this assay is T1, GST-fused ABI1 (Arabidopsis thaliana, UniProt P49597 1-434).
T1 construct: ABI1, PP2C clade A phosphatase, Arabidopsis thaliana, TAIR At4g26080; also called GST-ABI1; recombinant ABI1; not shown: GST, N-terminal, kept
T1 sequence (looked up): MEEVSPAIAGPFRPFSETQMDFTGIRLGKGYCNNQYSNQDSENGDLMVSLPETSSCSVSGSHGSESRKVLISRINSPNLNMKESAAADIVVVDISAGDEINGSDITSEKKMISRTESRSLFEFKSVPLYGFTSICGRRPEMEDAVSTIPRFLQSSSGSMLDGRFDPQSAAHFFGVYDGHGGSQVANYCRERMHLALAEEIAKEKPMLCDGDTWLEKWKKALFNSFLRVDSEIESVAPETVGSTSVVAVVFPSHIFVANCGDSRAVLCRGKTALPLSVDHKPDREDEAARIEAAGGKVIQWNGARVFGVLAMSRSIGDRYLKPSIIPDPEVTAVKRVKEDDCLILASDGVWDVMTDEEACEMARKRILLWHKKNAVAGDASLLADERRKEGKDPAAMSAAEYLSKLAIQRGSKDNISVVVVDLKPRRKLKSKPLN
The assay is described as follows: pull-down; GST-ABI1 or GST bound to Glutathione-Sepharose 4B beads, incubated with 10 ug recombinant SnRK2.4; 50 mM Tris-HCl pH 8.0, 50 mM NaCl, 0.01 % Triton X-100, 40 mM DTT; 45 min at RT, 5 washes; immunoblot with anti-SnRK2.4/SnRK2.10. The settings on record: both partners purified.

B1: recombinant SnRK2.4 (enzyme, Arabidopsis thaliana, UniProt P43291 1-363, looked up)
chain: MDKYELVKDIGAGNFGVARLMKVKNSKELVAMKYIERGPKIDENVAREIINHRSLRHPNIIRFKEVVLTPTHLAIAMEYAAGGELFERICSAGRFSEDEARYFFQQLISGVSYCHAMQICHRDLKLENTLLDGSPAPRLKICDFGYSKSSLLHSRPKSTVGTPAYIAPEVLSRREYDGKMADVWSCGVTLYVMLVGAYPFEDQEDPKNFRKTIQKIMAVQYKIPDYVHISQDCKNLLSRIFVANSLKRITIAEIKKHSWFLKNLPRELTETAQAAYFKKENPTFSLQTVEEIMKIVADAKTPPPVSRSIGGFGWGGNGDADGKEEDAEDVEEEEEEVEEEEDDEDEYDKTVKEVHASGEVRIS
notes: SnRK2.4, SNF1-related protein kinase 2 of group 1, Arabidopsis thaliana, TAIR At1g10940
On to B1, for which the binding result was “binds”.
